The results in this text go back to publication PMC4608377, “Substrate specificity and transport mechanism of amino-acid transceptor Slimfast from Aedes aegypti” (Nature Communications, 2015).

Holding throughout (settings): high-affinity site of two-site fit (apparent dissociation constant); 98 mM Na+ buffer; holding voltage -50 mV
Substrate in series [1]: N=C(N)NCCC[C@H](N)C(=O)O
Briefly: two-electrode voltage clamp, substrate-induced currents in Xenopus oocytes, two-site saturation fit. Format: cell-based, Aedes aegypti.

Substrate in series [2]: N[C@@H](Cc1ccccc1)C(=O)O
Described as above. Format: cell-based, Aedes aegypti.

Substrate in series [3]: NCCC[C@H](N)C(=O)O
Put plainly: cells, lysate or membranes.

B1: AaSlif (=AaCAT3; Slimfast) (Aedes aegypti) (protein)
chain: MRQGGRIDRFWIALTRKKRNEDDGSDSQLARVLSLLDLTGLGVGSTLGLGVYVLAGSVAYEQAGPAVVISFLVAAVASAIAALCYAEFAARVPKAGSAYIYSYVSIGEFAAFTIGWNLILEYVIGTSSVARGMSGYIDELAGKKISTALKETMGMNVDFLSDYPDFFSFVVVLILAALLAYGVKESTLMNNIFTGVNLCVIAIVLVAGGMNCDPANWMIKPEDIPKGIDAGVGGFAPYGFAGIMAGAAKCFYGFVGFDCIATTGEEAKNPSRNIPLAIVISLIIIFLAYFGISTVLTMALPYYLQNPDAPFPHLFEQLEWHAIKWIVSIGAIFALCTSLLGAMFPLPRVLYAMSTDGIIYKKLRTVHPKTQTPVLATILAGLLAATMAMLFNLQQLIDMMSIGTLLAYTIVAVSVLVLRYEDQTLMQSATVTIPNVFRQVFNVDKLKSPTTLSSSIVKFGICIFALLVCAVCTILVLATDELSAEYPGTLAAISVLGACMVFLIIVTALQPTENTKLTFKVPLVPLLPMLSVFFNLYLMFQLDAGTWVRFAVWIVIGYLIYFTYGIKHSVEGAIAKQAAVNGNGITIVKNGIDNNAFDGSNDKFVSTVPAENPRKSSKNSYSLNNE
notes: full length, 626 residues (1,881-nt ORF); Xenopus codon-optimised (synonymous) in pXOOM, without tag or with C-terminal eGFP (used interchangeably); cRNA expressed in Xenopus laevis oocytes
As to B1, the results for the K0.5 in series [1], in series [2] and in series [3] were 5.2 ± 1.4 µM, 15.6 ± 8.5 µM and 13.8 ± 6.2 µM, respectively.
